Test results: patent US20240401013

How the values were obtained:
[1] = tested on: PE-Bce integrase fusion (PASTE v4; printed Bcel); experiment: cell_activity; conditions: PASTE v4 comparator, Hepa1c1c7; att sequences not given
[2] = tested on: PE-Bxb1 integrase fusion (PASTE v3; printed Bxbl); experiment: cell_activity; conditions: PASTE v3 comparator, Hepa1c1c7; att sequences not given

Row | Substance | activity (% mCherry-positive cells) [1] | activity (% mCherry-positive cells) [2]
1 | Bce att sites (PASTE v4) | 0.5 | –
2 | Bxb1 att sites (PASTE v3) | – | 3.8
